Consider 2 substances from PMC3482342.

The target in experiment [1] is MukE-LLFR (MukE-L38S/L41A/F185S/R186E) (E. coli) (UniProt P22524). As to the kind of experiment: AUC.
The target in a further experiment is MukE (Escherichia coli) (UniProt P22524). Particulars: cited from earlier work.

Sequence of MukE (P22524 whole entry): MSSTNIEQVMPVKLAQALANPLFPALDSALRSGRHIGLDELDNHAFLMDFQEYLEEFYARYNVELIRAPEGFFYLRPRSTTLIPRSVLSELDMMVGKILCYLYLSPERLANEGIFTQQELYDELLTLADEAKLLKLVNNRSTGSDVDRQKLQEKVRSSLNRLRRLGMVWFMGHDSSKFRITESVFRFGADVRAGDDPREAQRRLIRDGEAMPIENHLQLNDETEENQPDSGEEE

Usually Kd stands for the free concentration of one partner at which half of the binding sites on the other are occupied at equilibrium, for simple one-to-one binding. In experiment [1], “MukE-LLFR (MukE-L38S/L41A/F185S/R186E) (from UniProt P22524 10-234) (natural protein)” registered a Kd of 450 µM.

With MukE (from UniProt P22524), the Kd with MukE (Escherichia coli) is 18 µM.
